Test results from patent publication US20030186281A1, “Modified tetracycline repressor protein compositions and methods of use” (priority 2001, published 2003).

Test system: tet operator sequence
Assay: β-galactosidase activity of a tetracycline-regulated promoter in transformed E. coli with revTetR, in the presence and absence of anhydrotetracycline (atc)
Type: cell-based, Escherichia coli
Details: for β-Galactosidase Activity, Cultured Without ATC: RevTetR isolate cultured in the absence of anhydrotetracycline (ATC); for β-Galactosidase Activity, Cultured With ATC: RevTetR isolate cultured in the presence of anhydrotetracycline (ATC)
Method in brief: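 TetR(BD) chimera mutants (TetR(B) residues 1–50, TetR(D) 51–208) expressed in E. coli regulating a tet operator-controlled lacZ. β-Galactosidase measured in Miller units at 28 °C and 37 °C with and without anhydrotetracycline; reported as percent of maximal expression without Tet repressor.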

B1: TetRrev29/25: revTetR(BD) G21- I22- E23- G24S (protein)
chain: MSRLDKSKVINSALELLNEVSLTTRKLAQKLGVEQPTLYWHVKNKRALLDALAVEILARHHDYSLPAAGESWQSFLRNNAMSFRRALLRYRDGAKVHLGTRPDEKQYDTVETQLRFMTENGFSLRDGLYAISAVSHFTLGAVLEQQEHTAALTDRPAAPDENLPPLLREALQIMDSDDGEQAFLHGLESLIRGFEVQLTALLQIV
modifications: Modified tetracycline repressor
notes: revTetR(BD) G21- I22- E23- G24S
**Q.** With B1 as the molecule, how does the “β-Galactosidase Activity, Cultured Without ATC” value read?
**A.** 92.9327

**Q.** And the “β-Galactosidase Activity, Cultured With ATC” value?
**A.** 3.112

B2: TetRrev28/30: revTetR(BD) V20G G21A I22I E23G (protein)
chain: MSRLDKSKVINSALELLNEGAIGGLTTRKLAQKLGVEQPTLYWHVKNKRALLDALAVEILARHHDYSLPAAGESWQSFLRNNAMSFRRALLRYRDGAKVHLGTRPDEKQYDTVETQLRFMTENGFSLRDGLYAISAVSHFTLGAVLEQQEHTAALTDRPAAPDENLPPLLREALQIMDSDDGEQAFLHGLESLIRGFEVQLTALLQIV
modifications: Modified tetracycline repressor
notes: revTetR(BD) V20G G21A I22I E23G
**Q.** For B2, which “β-Galactosidase Activity, Cultured Without ATC” value is on record?
**A.** 55.1783

**Q.** And the “β-Galactosidase Activity, Cultured With ATC” value?
**A.** 3.7384

B3: TetRrev28/31: revTetR(BD) A13A V20G G21R I22N G24G (protein)
chain: MSRLDKSKVINSALELLNEGRNEGLTTRKLAQKLGVEQPTLYWHVKNKRALLDALAVEILARHHDYSLPAAGESWQSFLRNNAMSFRRALLRYRDGAKVHLGTRPDEKQYDTVETQLRFMTENGFSLRDGLYAISAVSHFTLGAVLEQQEHTAALTDRPAAPDENLPPLLREALQIMDSDDGEQAFLHGLESLIRGFEVQLTALLQIV
modifications: Modified tetracycline repressor
notes: revTetR(BD) A13A V20G G21R I22N G24G
**Q.** How did the “β-Galactosidase Activity, Cultured Without ATC” value turn out when B3 was run?
**A.** 99.8749

**Q.** And the “β-Galactosidase Activity, Cultured With ATC” value?
**A.** 1.1121

B4: TetRrev29/27: revTetR(BD) L14E V20G (protein)
chain: MSRLDKSKVINSAEELLNEGGIEGLTTRKLAQKLGVEQPTLYWHVKNKRALLDALAVEILARHHDYSLPAAGESWQSFLRNNAMSFRRALLRYRDGAKVHLGTRPDEKQYDTVETQLRFMTENGFSLRDGLYAISAVSHFTLGAVLEQQEHTAALTDRPAAPDENLPPLLREALQIMDSDDGEQAFLHGLESLIRGFEVQLTALLQIV
modifications: Modified tetracycline repressor
notes: revTetR(BD) L14E V20G
**Q.** B4 was tested. Which “β-Galactosidase Activity, Cultured Without ATC” value did it give?
**A.** 82.7579

**Q.** What about the “β-Galactosidase Activity, Cultured With ATC” value of the same molecule?
**A.** 9.453

B5: TetRrev28/41: revTetR(BD) L17L N18D V20R I22N (protein)
chain: MSRLDKSKVINSALELLDERGNEGLTTRKLAQKLGVEQPTLYWHVKNKRALLDALAVEILARHHDYSLPAAGESWQSFLRNNAMSFRRALLRYRDGAKVHLGTRPDEKQYDTVETQLRFMTENGFSLRDGLYAISAVSHFTLGAVLEQQEHTAALTDRPAAPDENLPPLLREALQIMDSDDGEQAFLHGLESLIRGFEVQLTALLQIV
modifications: Modified tetracycline repressor
notes: revTetR(BD) L17L N18D V20R I22N
**Q.** With B5 as the molecule, how does the “β-Galactosidase Activity, Cultured Without ATC” value read?
**A.** 15.4643

**Q.** What about the “β-Galactosidase Activity, Cultured With ATC” value of the same molecule?
**A.** 5.6333

B6: TetRrev29/17: revTetR(BD) L17S E23D (protein)
chain: MSRLDKSKVINSALELSNEVGIDGLTTRKLAQKLGVEQPTLYWHVKNKRALLDALAVEILARHHDYSLPAAGESWQSFLRNNAMSFRRALLRYRDGAKVHLGTRPDEKQYDTVETQLRFMTENGFSLRDGLYAISAVSHFTLGAVLEQQEHTAALTDRPAAPDENLPPLLREALQIMDSDDGEQAFLHGLESLIRGFEVQLTALLQIV
modifications: Modified tetracycline repressor
notes: revTetR(BD) L17S E23D
**Q.** With B6 as the molecule, how does the “β-Galactosidase Activity, Cultured Without ATC” value read?
**A.** 44.6409

**Q.** And the “β-Galactosidase Activity, Cultured With ATC” value?
**A.** 1.7738

B7: TetRrev29/42: revTetR(BD) E19D G96R (protein)
chain: MSRLDKSKVINSALDLLNEVGIEGLTTRKLAQKLGVEQPTLYWHVKNKRALLDALAVEILARHHDYSLPAAGESWQSFLRNNAMSFRRALLRYRDRAKVHLGTRPDEKQYDTVETQLRFMTENGFSLRDGLYAISAVSHFTLGAVLEQQEHTAALTDRPAAPDENLPPLLREALQIMDSDDGEQAFLHGLESLIRGFEVQLTALLQIV
modifications: Modified tetracycline repressor
notes: revTetR(BD) E19D G96R
**Q.** For B7, which “β-Galactosidase Activity, Cultured Without ATC” value is on record?
**A.** 96.187

**Q.** And the “β-Galactosidase Activity, Cultured With ATC” value?
**A.** 11.861

B8: TetRrev29/52: revTetR(BD) L14V L17V N18K V20V G24G (protein)
chain: MSRLDKSKVINSAVELVKEVGIEGLTTRKLAQKLGVEQPTLYWHVKNKRALLDALAVEILARHHDYSLPAAGESWQSFLRNNAMSFRRALLRYRDGAKVHLGTRPDEKQYDTVETQLRFMTENGFSLRDGLYAISAVSHFTLGAVLEQQEHTAALTDRPAAPDENLPPLLREALQIMDSDDGEQAFLHGLESLIRGFEVQLTALLQIV
modifications: Modified tetracycline repressor
notes: revTetR(BD) L14V L17V N18K V20V G24G
**Q.** Which results are given for B8?
**A.** β-Galactosidase Activity, Cultured Without ATC: 48.4964; β-Galactosidase Activity, Cultured With ATC: 3.3035

B9: TetRrev28/48: revTetR(BD) N18Y V20D I22T W43S (protein)
chain: MSRLDKSKVINSALELLYEDGTEGLTTRKLAQKLGVEQPTLYSHVKNKRALLDALAVEILARHHDYSLPAAGESWQSFLRNNAMSFRRALLRYRDGAKVHLGTRPDEKQYDTVETQLRFMTENGFSLRDGLYAISAVSHFTLGAVLEQQEHTAALTDRPAAPDENLPPLLREALQIMDSDDGEQAFLHGLESLIRGFEVQLTALLQIV
modifications: Modified tetracycline repressor
notes: revTetR(BD) N18Y V20D I22T W43S
**Q.** What does the source list for B9?
**A.** β-Galactosidase Activity, Cultured Without ATC: 99.3107; β-Galactosidase Activity, Cultured With ATC: 1.1587

B10: TetRrev28/36: revTetR(BD) N18I E19G V20G E23V (protein)
chain: MSRLDKSKVINSALELLIGGGIVGLTTRKLAQKLGVEQPTLYWHVKNKRALLDALAVEILARHHDYSLPAAGESWQSFLRNNAMSFRRALLRYRDGAKVHLGTRPDEKQYDTVETQLRFMTENGFSLRDGLYAISAVSHFTLGAVLEQQEHTAALTDRPAAPDENLPPLLREALQIMDSDDGEQAFLHGLESLIRGFEVQLTALLQIV
modifications: Modified tetracycline repressor
notes: revTetR(BD) N18I E19G V20G E23V
**Q.** Which results are given for B10?
**A.** β-Galactosidase Activity, Cultured Without ATC: 65.5335; β-Galactosidase Activity, Cultured With ATC: 1.0579

B11: TetRrev28/49: revTetR(BD) N18Y V20D I22T (protein)
chain: MSRLDKSKVINSALELLYDVGTEGLTTRKLAQKLGVEQPTLYWHVKNKRALLDALAVEILARHHDYSLPAAGESWQSFLRNNAMSFRRALLRYRDGAKVHLGTRPDEKQYDTVETQLRFMTENGFSLRDGLYAISAVSHFTLGAVLEQQEHTAALTDRPAAPDENLPPLLREALQIMDSDDGEQAFLHGLESLIRGFEVQLTALLQIV
modifications: Modified tetracycline repressor
notes: revTetR(BD) N18Y V20D I22T
**Q.** Which “β-Galactosidase Activity, Cultured Without ATC” value does the source give for B11 here?
**A.** 62.5137

**Q.** What about the “β-Galactosidase Activity, Cultured With ATC” value of the same molecule?
**A.** 8.2716

B12: TetRrev29/35: revTetR(BD) L17S E23D (protein)
chain: MSRLDKSKVINSAEELSNEGGIDGLTTRKLAQKLGVEQPTLYWHVKNKRALLDALAVEILARHHDYSLPAAGESWQSFLRNNAMSFRRALLRYRDGAKVHLGTRPDEKQYDTVETQLRFMTENGFSLRDGLYAISAVSHFTLGAVLEQQEHTAALTDRPAAPDENLPPLLREALQIMDSDDGEQAFLHGLESLIRGFEVQLTALLQIV
modifications: Modified tetracycline repressor
notes: revTetR(BD) L17S E23D
**Q.** With B12 as the molecule, how does the “β-Galactosidase Activity, Cultured Without ATC” value read?
**A.** 58.0891

**Q.** What about the “β-Galactosidase Activity, Cultured With ATC” value of the same molecule?
**A.** 2.1051

B13: TetRrev28/46: revTetR(BD) A13A V20G G21R I22N G24G (protein)
chain: MSRLDKSKVINSALELLNEGRNEGLTTRKLAQKLGVEQPTLYWHVKNKRALLDALAVEILARHHDYSLPAAGESWQSFLRNNAMSFRRALLRYRDGAKVHLGTRPDEKQYDTVETQLRFMTENGFSLRDGLYAISAVSHFTLGAVLEQQEHTAALTDRPAAPDENLPPLLREALQIMDSDDGEQAFLHGLESLIRGFEVQLTALLQIV
modifications: Modified tetracycline repressor
notes: as for B3
**Q.** What does the source list for B13?
**A.** β-Galactosidase Activity, Cultured Without ATC: 95.9627; β-Galactosidase Activity, Cultured With ATC: 1.1482

B14: TetRrev28/40: revTetR(BD) L14S N18Y I22F L25L (protein)
chain: MSRLDKSKVINSASELLYEVGFEGLTTRKLAQKLGVEQPTLYWHVKNKRALLDALAVEILARHHDYSLPAAGESWQSFLRNNAMSFRRALLRYRDGAKVHLGTRPDEKQYDTVETQLRFMTENGFSLRDGLYAISAVSHFTLGAVLEQQEHTAALTDRPAAPDENLPPLLREALQIMDSDDGEQAFLHGLESLIRGFEVQLTALLQIV
modifications: Modified tetracycline repressor
notes: revTetR(BD) L14S N18Y I22F L25L
**Q.** Which “β-Galactosidase Activity, Cultured Without ATC” value does the source give for B14 here?
**A.** 91 .691

**Q.** What about the “β-Galactosidase Activity, Cultured With ATC” value of the same molecule?
**A.** 3.4834

B15: TetRrev29/9: revTetR(BD) L17V N18Y G21G I22T (protein)
chain: MSRLDKSKVINSALELVYEVGTEGLTTRKLAQKLGVEQPTLYWHVKNKRALLDALAVEILARHHDYSLPAAGESWQSFLRNNAMSFRRALLRYRDGAKVHLGTRPDEKQYDTVETQLRFMTENGFSLRDGLYAISAVSHFTLGAVLEQQEHTAALTDRPAAPDENLPPLLREALQIMDSDDGEQAFLHGLESLIRGFEVQLTALLQIV
modifications: Modified tetracycline repressor
notes: revTetR(BD) L17V N18Y G21G I22T
**Q.** What does the source list for B15?
**A.** β-Galactosidase Activity, Cultured Without ATC: 74.4357; β-Galactosidase Activity, Cultured With ATC: 11.772

B16: TetRrev29/24: revTetR(BD) E15V L17F N18Y I22M E23K (protein)
chain: MSRLDKSKVINSALVLFYEVGMKGLTTRKLAQKLGVEQPTLYWHVKNKRALLDALAVEILARHHDYSLPAAGESWQSFLRNNAMSFRRALLRYRDGAKVHLGTRPDEKQYDTVETQLRFMTENGFSLRDGLYAISAVSHFTLGAVLEQQEHTAALTDRPAAPDENLPPLLREALQIMDSDDGEQAFLHGLESLIRGFEVQLTALLQIV
modifications: Modified tetracycline repressor
notes: revTetR(BD) E15V L17F N18Y I22M E23K
**Q.** Which results are given for B16?
**A.** β-Galactosidase Activity, Cultured Without ATC: 85.5708; β-Galactosidase Activity, Cultured With ATC: 7.9819
